Tests used:
[1] = target: T1, human IgG1 Fc-tagged mouse PVRIG (m-PVRIG-hIgG1 Fc) (mouse, UniProt A0A1B0GS01 35-165); experiment: ELISA, coated antigen
T1 construct: bought from Acrobiosystems; also called Mouse PVRIG-Fc; mouse PVRIG recombinant protein; not shown: human IgG1 Fc tag of the Acrobiosystems product, and any linker to it
T1 sequence: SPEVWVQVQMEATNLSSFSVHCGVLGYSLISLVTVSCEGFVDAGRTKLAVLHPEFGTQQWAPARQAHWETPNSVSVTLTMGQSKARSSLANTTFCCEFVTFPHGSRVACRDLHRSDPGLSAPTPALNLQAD
Protocol: (§1) ELISA assay was used to detect binding properties of anti-PVRIG antibodies. […] After the antibody was added, the activity of the binding of the antibody to the antigen was detected by adding a secondary antibody (HRP-conjugated anti-primary antibody Fc antibody) and HRP substrate TMIB.
(§2) A human, cynomolgus monkey, or mouse PVRIG protein (at a concentration of 1 μg/mL) was coated on a 96-well microplate at 100 μL per well, and incubated overnight at 4° C. The plate was washed three times with wash buffer at 250 μL per well. For each wash, the plate was shaken for 10 s to ensure adequate cleaning. A blocking solution (PBS+0.05% Tween20+1% BSA) was added at 300 μL/well, and the plate was incubated at room temperature for 1 h. The plate was washed three times with wash buffer at 250 μL per well. For each wash, the plate was shaken for 10 s to ensure adequate cleaning. Dilutions of the test anti-PVRIG antibodies were added at 100 μL/well. The plate was incubated at 37° C. for 1 h. The plate was washed three times with wash buffer at 250 μL per well. The […] anti-human IgG secondary antibody (Sigma, A8667) was added at 100 μL per well. The plate was incubated at 37° C. for 1 h. The plate was washed three times with wash buffer at 250 μL per well. TMB was added at 100 μL/well, and the plate was incubated in the dark for 15 min. 0.16 M sulfuric acid was added at 50 μL/well. The OD values at 450 nm were read by using a Thermo MultiSkanFc microplate reader, and the EC₅₀ values of the binding of the anti-PVRIG antibodies to PVRIG were calculated.

[2] = target: T2, his-tagged cynomolgus monkey PVRIG (cyno-PVRIG-his) recombinant protein (cynomolgus monkey); experiment: ELISA, coated antigen
T2 construct: expressed in HEK293, purified by Ni-NTA; also called Monkey PVRIG-his; cynomolgus monkey PVRIG recombinant protein
T2 chain: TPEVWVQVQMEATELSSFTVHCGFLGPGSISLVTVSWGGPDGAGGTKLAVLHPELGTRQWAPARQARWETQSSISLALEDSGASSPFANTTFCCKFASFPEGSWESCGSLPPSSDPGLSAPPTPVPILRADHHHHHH
Protocol: as §1, §2

[3] = target: T3, his-tagged human PVRIG (h-PVRIG-his) recombinant protein (human, UniProt Q6DKI7 41-171, limits assumed); experiment: ELISA, coated antigen
T3 construct: bought from Acrobiosystems; also called Human PVRIG-his; human PVRIG recombinant protein; not shown: his tag
T3 sequence (looked up): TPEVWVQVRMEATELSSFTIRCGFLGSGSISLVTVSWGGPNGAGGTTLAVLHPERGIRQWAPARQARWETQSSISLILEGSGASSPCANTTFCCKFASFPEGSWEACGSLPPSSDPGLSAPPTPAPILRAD
Protocol: as §1, §2

[4] = target: T4, human PVRIG expressed on cells (human, UniProt Q6DKI7 41-326); experiment: cell-based or functional assay
T4 sequence (looked up): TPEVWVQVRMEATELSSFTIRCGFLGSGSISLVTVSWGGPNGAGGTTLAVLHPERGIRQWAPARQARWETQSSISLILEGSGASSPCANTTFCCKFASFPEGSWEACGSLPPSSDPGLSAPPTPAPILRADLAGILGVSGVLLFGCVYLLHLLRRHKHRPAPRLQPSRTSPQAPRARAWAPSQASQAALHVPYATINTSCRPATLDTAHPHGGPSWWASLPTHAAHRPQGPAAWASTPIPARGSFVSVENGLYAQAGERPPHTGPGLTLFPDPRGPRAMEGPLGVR

[5] = target: cynomolgus monkey TIGIT recombinant protein (cynomolgus monkey, UniProt A0A7N9I9V4 89-209); experiment: ELISA, coated antigen
Protocol: as §2
(§3) Similarly to Examples 4, 5 and 6, the binding of humanized anti-PVRIG/TIGIT bispecific antibodies to human and cynomolgus monkey TIGIT and blocking of binding of human TIGIT to ligand were detected, where PVRIG protein was replaced with TIGIT and PVRL2 was replaced with PVR.

[6] = target: T5, human TIGIT recombinant protein (human, UniProt Q495A1 22-141, limits assumed); experiment: ELISA, coated antigen
T5 construct: construct not described; also called human TIGT recombinant protein
T5 sequence (looked up): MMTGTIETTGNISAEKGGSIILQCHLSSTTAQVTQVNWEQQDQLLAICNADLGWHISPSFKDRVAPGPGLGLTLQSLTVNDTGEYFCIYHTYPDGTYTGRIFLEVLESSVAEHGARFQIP
Protocol: as §2, §3

Chain of cynomolgus monkey TIGIT recombinant protein (A0A7N9I9V4 entry or part of it): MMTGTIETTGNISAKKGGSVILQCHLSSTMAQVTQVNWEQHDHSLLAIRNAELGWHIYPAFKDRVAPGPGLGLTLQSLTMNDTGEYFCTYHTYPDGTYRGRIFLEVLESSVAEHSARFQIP

binding result [1]	EC50 [2] [nM]	EC50 [3] [nM]	binding result [5]	binding result [6]	EC50 [5] [nM]	EC50 [6] [nM]	Binder	NK92 killing of K562, killing activity (%), 20 nM antibody [4] [%]	NK92 killing of K562, killing activity (%), 100 nM antibody [4] [%]
no binding	0.16	0.27	–	–	–	–	anti-PVRIG antibody 39 (antibody, human IgG4 S228P, F234A L235A, V domains shown, no light chain) VH: QVQLVESGGGSVQAGGSLRLSCAASRYTSRTDCMGWFRQAPGKEREGVAHIDSDGIPRYVESVKGRFTISQDHAKNTLYLQMNSLKPEDSATYYCVVGFKFGDYCAPNDWGQGTQVTVSS	32	30
no binding	0.4	0.26	–	–	–	–	anti-PVRIG antibody 38 (antibody, human IgG4 S228P, F234A L235A, V domains shown, no light chain) VH: QVQLVESGGGSVQAGGSLRLSCAASPSTYGPSDMAWFRQAPGKQREGVATISAAGRLTYYTDSVRGRFTISRDNAKNTMYLQMNSLKPEDTAMYYCAADFAGGSSLFADYKYWGQGTQVTVSS	29	27
–	–	–	–	–	0.112	0.145	humanized anti-PVRIG/TIGIT bispecific antibody 1708-20H5 (bispecific antibody, human IgG4 S228P, kappa) heavy: not shown light: DIQMTQSPSSLSASVGDRVTITCRASENIYSYLAWYQQKPGKSPKLLIYNARTLAEGVPSRFSGSGSGTDFTLTISSLQPEDFATYYCQYHSGSPLPFGGGTKVEIKRTVAAPSVFIFPPSDEQLKSGTASVVCLLNNFYPREAKVQWKVDNALQSGNSQESVTEQDSKDSTYSLSSTLTLSKADYEKHKVYACEVTHQGLSSPVTKSFNRGEC	–	–

Continued, binder first:

Binder	binding result [1]	EC50 [2] [nM]	EC50 [3] [nM]	binding result [5]	binding result [6]	EC50 [5] [nM]	EC50 [6] [nM]	NK92 killing of K562, killing activity (%), 20 nM antibody [4] [%]	NK92 killing of K562, killing activity (%), 100 nM antibody [4] [%]
anti-PVRIG antibody 151 (antibody, human IgG4 S228P, F234A L235A, V domains shown, no light chain) VH: HVQLVESGGGSVQAGGSLRLSCVASASGFTYRPYCMAWFRQAPGKEREAVAGIDIFGGTTYADSVKGRFTASRDNAGFSLFLQMNDLKPEDTAMYYCAAGDSPDGRCPPLGQGLNYWGQGTQVTVSS	no binding	2.43	2.15	–	–	–	–	35	33
anti-PVRIG antibody 30 (antibody, human IgG4 S228P, F234A L235A, V domains shown, no light chain) VH: HVQLVESGGGSVQAGGSLRLSCEASGYSYSGDCMGWFRRAPGKERDEGVATIDNAGRIKYADSVKGRFTISHGNGKYILYLQMNSLKPEDTDMYYCAAGWTFGGNCSPADWGQGTQVTVSS	no binding	0.16	0.26	–	–	–	–	36	39
positive antibody Tab5 (antibody, human IgG4 S228P, kappa, F234A L235A, V domains shown, Variable regions of CPA.7.021 (WO2016134333A1) on human IgG4 (S228P/F234A/L235A/K447A) and human kappa constant regions) VH: EVQLVESGGGVVKPGGSLRLSCAASGFTFGTSSMNWVRQAPGKGLEWVAVISFDGTEIHYADSVKGRFTISRDNSKSTVFLQMNSLRPDDTALYYCAKGSGNIYFYSGMDVWGQGTTVTVSS VL: DIQMTQSPSTLSASVGDRVTITCRAGQSISGWLAWFQQKPGKAPNLLIYETSTLESGVPSRFSGSGSGTEYTLTISSLQPDDFATYYCQQYYSYPLTFGQGTKVEIKR	no binding	–	2.86	no binding	no binding	–	–	32	32
humanized anti-PVRIG/TIGIT bispecific antibody 1708-30H2 (bispecific antibody, human IgG4 S228P, kappa) heavy: not shown light: DIQMTQSPSSLSASVGDRVTITCRASENIYSYLAWYQQKPGKSPKLLIYNARTLAEGVPSRFSGSGSGTDFTLTISSLQPEDFATYYCQYHSGSPLPFGGGTKVEIKRTVAAPSVFIFPPSDEQLKSGTASVVCLLNNFYPREAKVQWKVDNALQSGNSQESVTEQDSKDSTYSLSSTLTLSKADYEKHKVYACEVTHQGLSSPVTKSFNRGEC	–	–	–	–	–	0.114	0.153	–	–
